From paper PMC6669086
Like-named read-outs stand apart in the source and are kept apart here. One block for each substance: values may come before it.

Tests used:
Atto532-tUI [1] = target: Atto532-tUI (UniProt Q9UMX0); experiment: other fluorescence titration
tUI = tUI (UniProt Q9UMX0); experiment: other fluorescence titration
Atto532-tUI [2] = target: Atto532-tUI (UniProt Q9UMX0); experiment: stopped-flow fluorescence kinetics
ubiquitin (Homo sapiens) [3] = target: ubiquitin (Homo sapiens) (UniProt P0CG48); settings: cited from earlier work
ubiquitin (Homo sapiens) [4] = target: ubiquitin (Homo sapiens) (UniProt P0CG48); settings: cited from earlier work; remark: listed apart in the source

Sequence of IsoT BUZ BUZ (P45974 173-289): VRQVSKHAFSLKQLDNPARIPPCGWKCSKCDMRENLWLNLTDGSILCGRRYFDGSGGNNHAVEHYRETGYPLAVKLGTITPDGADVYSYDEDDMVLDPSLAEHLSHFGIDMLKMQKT
Sequence of Rabex5 RUZ RUZ (Q9UJ41 13-47): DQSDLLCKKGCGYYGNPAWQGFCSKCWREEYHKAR
Sequence of Nedd8 (Q15843 1-76): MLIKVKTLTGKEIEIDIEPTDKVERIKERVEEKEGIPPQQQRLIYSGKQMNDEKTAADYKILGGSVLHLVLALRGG

Kd (Atto532-tUI [1]): 0.066 nM
Ki (tUI): 0.194 nM
Kd (Atto532-tUI [2]): 0.0564 nM
Substance: ubiquitin (free Ub) (from UniProt P0CG48 1-76) (natural protein)

Substance: Rabex5 RUZ RUZ (from UniProt Q9UJ41)
Kd (ubiquitin (Homo sapiens) [3]): 12000 nM

fold higher affinity for Ub than Nedd8 (Atto532-tUI [1]): 120 fold
Substance: Nedd8 (from UniProt Q15843 1-76) (natural protein)

Substance: IsoT BUZ BUZ (from UniProt P45974)
Kd (ubiquitin (Homo sapiens) [4]): 3000 nM
